Source: the nanobody polyreactivity screen of Harvey et al. (2022)

Assay: yeast display, Sf9 membrane polyspecificity reagent, FACS + sequencing; frameworks hold sequencing errors
Procedure, shortened: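 A nanobody's polyreactivity label depends on the gate it was sorted from. Yeast display cells were stained with 10% biotinylated, detergent-solubilized Sf9 membrane reagent for 1 hour at 4 °C, enriched on streptavidin microbeads and sorted by FACS. The low and high (top ~1%) gates were set on anti-HA fluorescence for expression and streptavidin fluorescence for reagent binding.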

| Sequence | polyreactivity (PSR sort gate) |
| --- | --- |
| QVQLVESGGGLVQAGGSLRLSCAASGSIFEWYAMGLYRQAPGKETELVAAISSGGRTYYADSVKGRFTISRDNAKNTVYLQMNSLKPEDTAVYYCAGRDVDHVGGSKYYYWGQGTQVTVSS | high polyreactivity |
| QVQLVESGGGLVQAGGSLRLSCAASGSIFEWYAMGWYRQAPGKERELVAAIDISGGDTYYADSVKGRFTISHDNAKNNVYLQRNSLKPEDTAVYYCAATRPASYAAYDYWGQGTQVTVSS | high polyreactivity |
| QVQLVESGGGLVQAGGSLRLSCAASGSIFEWYAMGWYRQAPGKERELVADITYNGGSTYYADSVKGRFTISRDNAKNTVYLQMNSLKPEDTAVYYCAADYFVQVPDYYYASEYGYWGQATQVTVSS | low polyreactivity |
| QVQLVESGGGLVQAGGSLRLSCAASGSIFEWYAMGWYRQAPGKVRELVADITYNGGSTYYADSVKGRFTISRDNAKNTVYLQMNSLKPEDTAVYYCAADYFVQVPDYYYASEYGYWGQGTQVTVSS | low polyreactivity |
| QVQLVESGGGLVQAGGSLRLSCAASGSIFEYNAMGWYRQAPGKERELVAAITRGGNTYYADSVKGRFTISRDNAKNTVYLQMNSLKPEDTAVYYCAAVQWYGYPYYSWGQGTQVIVSS | low polyreactivity |
| QVQLVESGGGLVQAGGSLRLSCAASGSIFEYNDMGWYRQAPGKEREMVSAISWNGGSTYYADSVKGRFTISRDNAKNTVYLQMNSLKPEDTAVYYCAADGDPLWVASEYDSWGQGTQVTVSS | low polyreactivity |
| QVQLVESGGGLVQAGGSLRLSCAASGSIFEYYAMGWYRQAPGKEREFVAAISDNGDSTYYADSVKGRFTISRDNAKNTVYLQMNSLKPEDTAVYYCAVRKAYQYGFYYWGQGTQLTVSS | low polyreactivity |
| QVQLVESGGGLVQAGGSLRLSCAASGSIFEYYAMGWYRQAPGKERELVATITTRGGSTYYADSVKGRFTLSRDNAKNTVSLQMKCLKPEDTAVYYCNARAAYYGRGTLLRRNYWGQGTQVTVSS | high polyreactivity |
| QVQLVESGGGLVQAGGSLRLSCAASGSIFEYYTMGWYRQAPGKERELVAGISWSGGSTYYADSVKGRFTISRDNAKNTVYLQMNSLKPEDTAVYYCAAGRTGWYWDSGSTYRYGYGYWGQGTQVTVSS | high polyreactivity |
| QVQLVESGGGLVQAGGSLRLSCAASGSIFEYYTMGWYRQAPGKERELVATISRSADRTYYADSVKGRFTISRDNAKNTVYLQMNSLKPEDTAVDYCAKRYPRTTQWIYDYWGQGTQVTVSS | high polyreactivity |
| QVQLVESGGGLVQAGGSLRLSCAASGSIFFANAMGWYRPAPGKERELVATITSGGSTTYADSLKGRFTISRDNAKNTVYLQMNSLKPEDTAVYYCNADYDYGWVFYSNYDYWGQGTQVTVSS | low polyreactivity |
| QVQLVESGGGLVQAGGSLRLSCAASGSIFFANAMGWYRQAPGKERELVATITSGGSTTYADSVKGRFTISRDNAKNTVYLQMNSLKPEDTAVYYCNADYDYGWVFYSNYDYWGQGTQVTVSS | low polyreactivity |
| QVQLVESGGGLVQAGGSLRLSCAASGSIFFDYAMGWDRQAPGKERQLVAAISWTGGSTYYADSVKGRFTISRDNAKNTVYLQMNSLKPEDTAVYYCNARYYSYSSPYDYWGQGTQVTVSS | high polyreactivity |
| QVQLVESGGGLVQAGGSLRLSCAASGSIFFGNAMGWYRQAPGKERELVAAISSRGTSTYYADSVKGRFTISRDNAKNTVYLQMNSLKPEDTAVYYCNKRVRTFRGGPLAGYDYWGQGTQVTVSS | high polyreactivity |
| QVQLVESGGGLVQAGGSLRLSCAASGSIFFGNAMGWYRQAPGKERELVAAISTTGGSTYYADSVKGRFTISRDNAKNTVYLQMISLKPEDTAVYYCNADRATWWEQWWYDYWGQGTQVTVSS | low polyreactivity |
| QVQLVESGGGLVQAGGSLRLSCAASGSIFFHNAMGWYRQAPGKERELVAAITSSGGRTYYADSVKGRFTISRDNAKNTVYLQMNSLKPEDTAVYYCDASPYGFRRNYYWGQGTQVTVSS | high polyreactivity |
| QVQLVESGGGLVQAGGSLRLSCAASGSIFFPNAMGWYRQAPGKERELVAAITSTSTNYADSVKGRCTISRDNAKNTVYLQMNSLKPEDTAVYYCAADGEFRRAWYEGVYWGQGTQVTVSS | low polyreactivity |
| QVQLVESGGGLVQAGGSLRLSCAASGSIFFPYAMGWYRQAPGKEREFVAAITGSGTSTYYADSVKGRFTISRDNAKNTVYLQMNSLKPEDTAVYYCNAKRDRYFYTVKYDYWGQGTQVTVSS | low polyreactivity |
| QVQLVESGGGLVQAGGSLRLSCAASGSIFFRYAMGWYRQAPGKERELVARISWGGGRTYYADSVKGRFTISRDNAKNTVYLQMNSLKPEDTAVYYCNRAYWVNPGGFDYWGQGTQVTVSS | high polyreactivity |
| QVQLVESGGGLVQAGGSLRLSCAASGSIFFSYAMGWYRPAPGKERELVAAISSGGSTYYADSVKGRFTISRDNAKNTVYLPMNSLKPEDTAVFYCAARGYRLVPVDFYYWGQGTQVTVSS | low polyreactivity |
| QVQLVESGGGLVQAGGSLRLSCAASGSIFFSYAMGWYRQAPGKERELVAAITSSVDSTYYADSVKGRFTISRDNAKNTVYLQMNSLKPEDTAVYYCAARYRSGYYRYDYWGQGTQVTVSS | low polyreactivity |
| QVQLVESGGGLVQAGGSLRLSCAASGSIFFSYAMGWYRQAPGKERELVATITTSGGRTRYADSVKGRFTISRDNAKNTVYLQMNSLKPEDTAVYYCAVRGHFFTYGYWGQGTQVTVSS | high polyreactivity |
| QVQLVESGGGLVQAGGSLRLSCAASGSIFFTYTMGWYRQAPGKERELVAAISASGGSTYYADSVKGRFTISRDNAKNTVYLQMNSLKPEDTAVYYCNARRRTSFIMYYWGQGTQVTVSS | high polyreactivity |
| QVQLVESGGGLVQAGGSLRLSCAASGSIFFVYDMGWYRQAPGKERELVAGIRWSGGRTSYADSVKGRFTISRDNAKNTVYLQMNRLKPEDAAVYYCAADPRSYFTSEYWGQGTQVTVSS | high polyreactivity |
| QVQLVESGGGLVQAGGSLRLSCAASGSIFFYNAMGWYRQAPGKERELVAAITTRGGSTYYADSVKGRFTISRDNAKNTVYLQMNSLKPEDTAVYYCARSSRGKLDYWGQGTQVTVSS | low polyreactivity |
| QVQLVESGGGLVQAGGSLRLSCAASGSIFFYNAMGWYRQAPGKERELVAAITTRGGSTYYADSVKGRFTISRDNAMNTVYLQKNSLKPEDTAVYYCTADYYWTSLAMDSWGQGTQVTVSS | low polyreactivity |
| QVQLVESGGGLVQAGGSLRLSCAASGSIFFYNTMGWYRQAPGKERELVARISRSGGSTYYADSVKGRFTISRDNAKNTVYLQMNSLKPEDTAVYYCAARSAPWRYRYYKPYYYWGQGTQVTVSS | high polyreactivity |
| QVQLVESGGGLVQAGGSLRLSCAASGSIFFYYAMGWYRQAPGKEREFVAHITSSDASTHYADSVKGRFTISRDNAKNTVYLQMNSLKPEDTAVYYCAADRYPGHRERDYWGQGTQVTVSS | low polyreactivity |
| QVQLVESGGGLVQAGGSLRLSCAASGSIFFYYAMGWYRQAPGKERELVAAITLSDGRTYYADSVKGRFTISRDNAKNTVYLQMNSLKPEDTAVYYCNADTGWYPTGARWHHYDYWGQGTQVTVSS | high polyreactivity |
| QVQLVESGGGLVQAGGSLRLSCAASGSIFGANAMGWYRQAPGKERELVAAISSNGDDTYADSVMGRFTISRDNAKNTVYLQMNSLKPEDTAVYYCAARAERVREYNYWGQGTQVTVSS | low polyreactivity |
